# Values quoted from earlier work as cited in US20240293585A1, “HIGH MOLECULAR WEIGHT ZWITTERION-CONTAINING POLYMERS” (Kodiak Sciences Inc., priority 0001, published 2024).
substance,measurement,setting,value
Mircera: PEGylated form of recombinant human erythropietin [reference compound],in vivo half life after subcutaneous injection,"chronic renal disease patients, subcutaneous",approximately 140 hours
rhEPO: 30.4 kDa protein with 165 amino acids; native form of human erythropoietin with 3 N-linked chains,mean terminal half life after intravenous injection,"human, intravenous",7 h
same,mean terminal half life after subcutaneous injection,"human, subcutaneous",16 h
Cimzia: Fab′ against TNFa conjugated with a 40 kDa branched polymer [reference compound],Human half life after subcutaneous injection,"human, subcutaneous",311 h
